Measurements as given in article PMC3410904.
One block for each substance: values may come before it.

How the values were obtained:
[1] = target: CSL (residues 10-436 of human isoform 1, myc/his) (human) (UniProt Q06330)
[2] = target: CSL^F235L (residues 10-436 of human isoform 1, myc/his) (human) (UniProt Q06330)
[3] = target: CSL (residues 10-436 of human isoform 1, myc/his) (human) (UniProt Q06330); remark: listed apart in the source
[4] = target: CSL (residues 10-436 of human isoform 1, myc/his) (human) (UniProt Q06330); remark: listed apart in the source
[5] = target: CAN (CSL-ANKNLS) fusion protein (human) (UniProt Q06330)
[6] = target: CAN (CSL-ANKNLS) fusion protein (human) (UniProt Q06330); remark: listed apart in the source
[7] = target: CSL BTD (Homo sapiens) (UniProt Q06330); details: cited from earlier work

TP1-luc luciferase reporter in OT11 cells; … co-transfected with CSL; fold over empty vector [1]: 24 fold
Substance: … (human Notch1 residues 1758-2174) (from UniProt P46531 1758-2174) (domain or fragment)

TP1-luc luciferase reporter in OT11 cells; NICD co-transfected with CSL^F235L; fold activation [2]: 94 fold
TP1-luc luciferase reporter in OT11 cells; NICD co-transfected with CSL; fold activation [3]: 100 fold
Substance: full-length NICD (human Notch1 intracellular domain) (domain or fragment)

TP1-luc luciferase reporter in OT11 cells; CSL co-transfected with … and 1 to 30 ng dnMAML plasmid; percent of maximal (uninhibited) activation, nearly 0% at 30 ng (% of maximal activation) [4]: 30
TP1-luc luciferase reporter in OT11 cells; CAN co-transfected with RAM and 1 to 30 ng dnMAML plasmid; percent of maximal (uninhibited) activation, nearly 0% at 30 ng (% of maximal activation) [5]: 25
Substance: dominant-negative form of MAML (dnMAML) (domain or fragment)

TP1-luc luciferase reporter in OT11 cells; RAM and ANKNLS in trans co-transfected with CSL; fold activation [1]: 9 fold
TP1-luc luciferase reporter in OT11 cells; RAM co-transfected with CAN; fold over CAN alone [6]: 6 fold
Substance: RAM (human Notch1 residues 1758-1878) (from UniProt P46531 1758-1878) (domain or fragment)

TP1-luc luciferase reporter in OT11 cells; NICD* co-transfected with CSL^F235L; fold activation [2]: 38 fold
TP1-luc luciferase reporter in OT11 cells; NICD* co-transfected with CSL; fold activation [3]: 4 fold
Substance: NICD* (full-length NICD with xWxP to A4) (domain or fragment)

Substance: Notch intracellular domain RAM region RAM (from UniProt P46531)
Kd [7]: 100 nM
